# Columns and labels:
# mouse brain [1] = test: in vivo NIR fluorescence imaging after intravenous injection; details: mice; for crossing of the BBB / accumulation in the brain: MPAP-Cy5.5 at about 24 hours post-injection, Cy5.5 at any point in time; for NIR fluorescent signal in the brain in vivo: imaging 15 min to 44 hours
# Experimental: In the exemplary embodiment of the present invention, for in vivo optical imaging, n mice can be injected intravenously with about 2.5 nmol of the exemplary delivery module MPAP-Cy5.5, Cy5.5 alone, or saline solution. In an exemplary embodiment of the present invention, n=4 for each group of solutions for a total of 12 mice. Imaging can be performed at various times after injection. For example, it may be performed about 15 and 30 minutes after injection, as well as 1, 2, 3, 6, 24 and 44 hours after injection. For exemplary NIR fluorescent imaging, the mice can be placed into an imaging system, for example a Kodak Imaging Station IS2000MM, equipped with a band-pass filter at about 630 nm and a long pass filter at about 700 nm, such as the Chroma Technology Corporation. Exemplary images can be captured with e.g., charge-coupled device (“CCD”) camera embedded in the imaging system and exemplary analyses may be performed using Kodak ID3.6.3 imaging software.
# Initially, after an exemplary intravenous injection of the delivery module into an mammal, such as a mouse, there may be no defined fluorescent signal in the brain for a few hours. […] An increase in the emitted light can occur 24 hours after injection 202, and the signal can continue to accumulate up to approximately 2 days or more 203.
# [2] = tested on: neurons, astrocytes, and endothelial cells; test: dual-channel fluorescence microscopy of stained brain sections; format: in vivo, mouse
# Source text: When the exemplary MPAP-Cy5.5 delivery module penetrates the BBB, exemplary dual-channel fluorescence microscopy can be used to observe whether the distribution of the exemplary MPAP-Cy5.5 delivery module in the exemplary brain forms in a cell-type-specific manner. In a further exemplary embodiment of the present invention, an exemplary distribution of the exemplary MPAP-Cy5.5 delivery module within different cell types of a brain can be determined with dual-channel fluorescence microscopy. For example, cryopreserved serial brain sections from mice perfused with the MPAP-Cy5.5 delivery module can be stained for neurons, astrocytes, and endothelial cells using anti-neuronal nuclei antibody (such as, for example, NeuN, monoclonal, from Chemicon International, Temecula, Calif.), anti-glial fibrillary acidic protein antibody (such as, for example, GFAP from Chemicon International, Temecula, Calif.), and anti-CD31 (such as, for example PECAM-1 from BD Biosciences Pharmingen, San Jose, Calif.). The brain sections may be further incubated with corresponding FITC-conjugated secondary antibodies. Further, slides of the brain sections can be mounted in a mounting medium, such as, for example, a Vectashield mounting medium from Vector Laboratories in Burlingame, Calif. Dual-channel fluorescence microscopy in, for example, the Cy5.5 and FITC channels can be performed using, for example, a Nikon Eclipse 50i fluorescence microscope equipped with an appropriate filter set, such as, for example, one provided by Chroma Technology Corporation in Rockingham, Vt. Exemplary images can be acquired using a CCD camera with near-infrared sensitivity (such as, for example, a SPOT 7.4 Slider RTKE from Diagnostic Instruments in Sterling Heights, Mich.).
# Although a mechanism for neuronal accumulation remains unclear, it may be possible that preferential targeting into neurons can be related to the higher lypophilicity of neuronal membranes as compared to other cell types. (See, e.g., publications 4 and 6.) Lypophilic peptides may have an advantage to penetrate by adsorptive endocytosis. […] However, some signal may be detectable in the thalamus 904 and the CA3 area of the hippocampus 905.
# mouse brain [3] = test: ex vivo NIR fluorescence imaging of removed brains and coronal brain slices; format: in vivo; details: for ex vivo NIR fluorescent signal of removed brain: 24 hours after injection
# Experimental: In another exemplary embodiment of the present invention, fluorescence signals may be observed using exemplary ex vivo imaging performed on the exemplary mouse brains post injection of the exemplary delivery module. Exemplary Ex vivo NIR fluorescence imaging can be performed, e.g., 24 hours after the injection of the exemplary MPAP-Cy5.5 delivery module. Upon sacrificing the mice, each mouse brain can be removed, placed into the exemplary imaging system, and imaged as described above.
# Additional observations regarding accumulation of the exemplary delivery module in the brain can be obtained after imaging 1 mm-thick coronal brain slices from the exemplary mouse brain. The exemplary mouse brain can be cut into 1 mm coronal brain sections using a slicing apparatus, such as the RBM-2000C provided by Analytical Scientific Instruments, taken at the following exemplary anteroposterior coordinates from bregma, e.g.: +1.1 mm, +0.1 mm, −0.9 mm, −1.9 mm. Referring to FIG. 6, the exemplary brain slices can then be placed into the exemplary imaging system and imaged 600 as described above.
# brain endothelium = test: dual-channel confocal microscopy of brain endothelium; format: in vivo; details: intravenous, about 2.5 nmol; sacrificed 1, 3 or 6 hours after injection
# Experimental: Further, fluorescence confocal microscopy techniques/systems can be employed to investigate a delivery route of the delivery module after injection. For example, mammals can be injected intravenously with about 2.5 nmol of the exemplary delivery module MPAPCy5.5, perfused, and sacrificed 1, 3 or 6 hours after injection. Brain sections from the sacrificed animals may be frozen. The frozen brain sections can then be stained with, for example, anti-CD31 antibodies followed by FITC-conjugated secondary antibody as described above. Dual-channel confocal microscopy can be performed, for example, in the FITC and Cy5.5 channels. Further, confocal microscopy can be performed using, for example, an Axiovert 200 M inverted microscope (from, e.g., Carl Zeiss, Inc. Thornwood, N.Y.), equipped with an LSM Pascal Vario RGB Laser Module (Arg 458/488/514 nm, HeNe 543 nm, HeNe 633 nm). An exemplary confocal images with a slice thickness of, for example, <0.9 Am can be acquired to produce, for example, FITC and Cy5.5 staining as well as Nomarski optics. Exemplary summation projection of all background-corrected confocal slices can be produced using, for example, LSM 5 Pascal Software. Further, the exemplary confocal images can be color-coded with, for example, green for FITC and red for Cy5.5. […]
# [4] = HPLC study of perfused brain homogenate; format: in vivo, mouse; details: brain perfused 24 hours after intravenous injection
# Experimental: In a further exemplary embodiment of the present invention, the mouse brains can be perfused for 24 hours after injection of the delivery module in order to remove intravascular contents. The brain homogenates can then be subjected to exemplary High-Powered Liquid Chromatography (“HPLC”) analysis.
# According to an exemplary embodiment of the present invention, n mice (n=4 for example) can be injected intravenously with the delivery module. The mouse brain uptake of the compound can be detected by HPLC after in situ brain perfusion. A perfused brain can be soaked in a HPLC mobile phase solution for 15 minutes and homogenized on ice using a mechanical homogenizer, such as that which is marketed by Virtis in Gardiner, N.Y. A resulting brain residue can be filtered using, for example, 0.45 Am Whatman Nylon filters, lyophilized, and analyzed by 2D-HPLC, such as that whish is marketed by Lachrome Elite, Hitachi in San Jose, Calif. […] In addition, the detected peak can be correlated and matched with the absorbance spectrum profile of Cy5.5 dye. […] Furthermore, the absorbance profile of this peak can correspond to the absorbance profile of Cy5.5 dye at approximately 670 nm 702.
# Upon switching the detection wavelength to 220 nm, the retention time peak at 32 min can be detected along with other more polar peaks, such as those associated with brain metabolites.
Substance,crossing of the BBB / accumulation in the brain (mouse brain [1]),time post-injection at which NIR fluorescent signal is detected in the brain (head summit) (mouse brain [1]; about 2.5 nmol),time up to which the brain signal continues to accumulate (mouse brain [1]; about 2.5 nmol),NIR fluorescent signal in the brain in vivo (mouse brain [1]; about 2.5 nmol),accumulation in peripheral tissues / mouse body (mouse brain [1]; kidneys and spleen),accumulation in astrocytes ([2]; GFAP staining),accumulation in neurons ([2]; NeuN staining),localization in endothelial cells ([2]; anti-CD31 staining),"distribution over brain regions ([2]; cortex, hippocampus, thalamus)","subcellular localization in neurons ([2]; mouse, in vivo)",ex vivo NIR fluorescent signal of removed brain (mouse brain [3]),"distribution in 1 mm coronal brain slices (mouse brain [3]; slices at +1.1, +0.1, −0.9, −1.9 mm from bregma)",time after injection to pass through the endothelium (brain endothelium),degradation in systemic circulation (intact compound in brain homogenate by HPLC) [4]
C14-βAla-(Arg)7-Cys(Cy5.5)-NH2 [MPAP-Cy5.5],crossed the BBB and accumulate within the mouse brain,6 h,≥ 2 days,progressively increasing NIR fluorescent signal,accumulation of the delivery module in peripheral tissues,may not show widespread accumulation,primarily accumulate in neurons,no significant localization,detected in almost all regions of the brain,predominantly localized within the cell cytoplasm,strong NIR fluorescent signal,distributed randomly throughout the brain parenchyma,≤ 1 h,may likely not degrade in systemic circulation
Cy5.5 [reference compound],no accumulation in the brain,–,–,no signal appears,–,–,–,–,–,–,no significant signal beyond background levels,–,–,–

# From patent publication US20080056998A1, “COMPOSITION AND PROCESSES FOR CROSSING THE BLOOD-BRAIN BARRIER WITH POLYPEPTIDES FOR IN VIVO NEUROIMAGING” (The General Hospital Corporation, priority 2006, published 2008)
